# Data published in IntAct's records for PubMed 29892012.
# B1: Abl interactor 2 (Homo sapiens), Q9NYB9 (parent)
# chain: MAELQMLLEEEIPGGRRALFDSYTNLERVADYCENNYIQSADKQRALEETKAYTTQSLASVAYLINTLANNVLQMLDIQASQLRRMESSINHISQTVDIHKEKVARREIGILTTNKNTSRTHKIIAPANLERPVRYIRKPIDYTILDDIGHGVKWLLRFKVSTQNMKMGGLPRTTPPTQKPPSPPMSGKGTLGRHSPYRTLEPVRPPVVPNDYVPSPTRNMAPSQQSPVRTASVNQRNRTYSSSGSSGGSHPSSRSSSRENSGSGSVGVPIAVPTPSPPSVFPAPAGSAGTPPLPATSASAPAPLVPATVPSSTAPNAAAGGAPNLADGFTSPTPPVVSSTPPTGHPVQFYSMNRPASRHTPPTIGGSLPYRRPPSITSQTSLQNQMNGGPFYSQNPVSDTPPPPPPVEEPVFDESPPPPPPPEDYEEEEAAVVEYSDPYAEEDPPWAPRSYLEKVVAIYDYTKDKEDELSFQEGAIIYVIKKNDDGWYEGVMNGVTGLFPGNYVESIMHYSE
# partner: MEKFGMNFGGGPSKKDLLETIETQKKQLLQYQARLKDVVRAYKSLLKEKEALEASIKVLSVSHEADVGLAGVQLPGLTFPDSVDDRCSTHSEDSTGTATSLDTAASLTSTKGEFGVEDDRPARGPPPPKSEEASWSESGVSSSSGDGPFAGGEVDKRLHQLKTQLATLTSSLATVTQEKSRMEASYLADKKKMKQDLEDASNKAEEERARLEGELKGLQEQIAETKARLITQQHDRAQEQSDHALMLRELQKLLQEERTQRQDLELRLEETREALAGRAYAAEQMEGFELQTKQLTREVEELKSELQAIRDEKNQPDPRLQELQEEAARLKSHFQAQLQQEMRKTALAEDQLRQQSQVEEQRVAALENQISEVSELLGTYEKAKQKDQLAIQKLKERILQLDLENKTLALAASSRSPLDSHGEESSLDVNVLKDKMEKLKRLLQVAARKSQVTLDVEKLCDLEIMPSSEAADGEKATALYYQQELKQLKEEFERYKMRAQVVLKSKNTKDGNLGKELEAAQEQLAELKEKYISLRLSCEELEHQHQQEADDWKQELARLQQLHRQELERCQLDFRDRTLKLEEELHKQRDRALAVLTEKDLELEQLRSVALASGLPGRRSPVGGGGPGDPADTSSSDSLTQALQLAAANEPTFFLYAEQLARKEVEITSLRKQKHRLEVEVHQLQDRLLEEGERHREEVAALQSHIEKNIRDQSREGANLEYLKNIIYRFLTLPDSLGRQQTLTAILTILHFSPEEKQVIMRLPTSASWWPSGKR
# B2: Late cornified envelope protein 1B (Homo sapiens), Q5T7P3 (parent)
# chain: MSCQQNQQQCQPPPKCIPKCPPKCLTPRCPPKCPPKCPPVSSCCSVSSGGCCGSSSGGSCGSSSGGCCSSGGGGCCLSHHRRRRSHCHRPQSSGCCSQPSGGSSCCGGGSGQHSGGCC
# partner: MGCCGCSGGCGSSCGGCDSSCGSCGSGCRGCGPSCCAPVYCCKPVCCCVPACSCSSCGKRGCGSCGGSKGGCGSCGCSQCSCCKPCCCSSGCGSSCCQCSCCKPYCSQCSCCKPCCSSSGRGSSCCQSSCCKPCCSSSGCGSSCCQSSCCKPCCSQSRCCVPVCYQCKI
# B3: Abl interactor 2 (Homo sapiens), Q9NYB9 (parent)
# chain: B1 chain
# partner: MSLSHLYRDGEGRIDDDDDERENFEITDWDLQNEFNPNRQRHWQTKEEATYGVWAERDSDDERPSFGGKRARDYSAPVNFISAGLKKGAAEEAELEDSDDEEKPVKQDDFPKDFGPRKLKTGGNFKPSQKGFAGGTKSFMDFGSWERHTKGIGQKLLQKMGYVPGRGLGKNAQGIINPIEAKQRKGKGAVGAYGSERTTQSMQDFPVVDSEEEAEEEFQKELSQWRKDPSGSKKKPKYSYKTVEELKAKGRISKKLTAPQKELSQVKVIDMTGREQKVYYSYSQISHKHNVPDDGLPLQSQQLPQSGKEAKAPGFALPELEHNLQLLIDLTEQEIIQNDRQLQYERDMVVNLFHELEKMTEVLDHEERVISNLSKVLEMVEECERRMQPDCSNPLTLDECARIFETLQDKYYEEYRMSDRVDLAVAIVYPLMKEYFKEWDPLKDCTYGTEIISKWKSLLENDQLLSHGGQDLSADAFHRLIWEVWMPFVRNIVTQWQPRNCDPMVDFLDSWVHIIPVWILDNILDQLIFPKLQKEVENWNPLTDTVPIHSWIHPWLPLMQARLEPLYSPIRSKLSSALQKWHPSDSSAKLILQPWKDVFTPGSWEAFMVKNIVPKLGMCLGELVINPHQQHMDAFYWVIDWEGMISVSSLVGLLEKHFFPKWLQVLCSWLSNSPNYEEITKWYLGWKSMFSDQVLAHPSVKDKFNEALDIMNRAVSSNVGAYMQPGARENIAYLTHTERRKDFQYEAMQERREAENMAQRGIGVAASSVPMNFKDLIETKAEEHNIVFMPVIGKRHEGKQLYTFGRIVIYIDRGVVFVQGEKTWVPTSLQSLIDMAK
# B4: U3 small nucleolar RNA-associated protein 25 homolog (Homo sapiens), Q68CQ4 (parent)
# chain: MGKRGSRSQSQLLNTLTKKQKKHLRDFGEEHPFYDRVSRKEAKPQICQLSESSDSSDSESDSESEPQQVSGYHRLLATLKNVSEEEEEDEEEEEEEDSIVDDAEMNDEDGGSDVSVEEEMAAESTESPENVALSADPEGKEDGEEPPGTSQTSPEEFTDAKHESLFSLETNFLEEESGDNSSLKASQDPFLQHVNKELKEKAIQAVATNPKTTHELKWPILGQLFFSSKFQKLETFKPPKDIDLKSLHLQKPLESTWTKTNSQFLSGPQKSSSPFTPLQKELFLIMNSYRDLFYPERTALKNGEEIRHVYCLHVINHILKANAQVLGNNSRRRSQKFGVGDDDDFRDQGLTRPKVLIVVPFREAALRVVQLFISLLEGDSKKKIIVSNKKRFQGEYGSDPEERPPNLKRPEDYEAVFVGNIDDHFRIGVAILQRSIRLYAPFYSSDILIASPLGLRTIIGGEGEKKRDFDFLSSIELLIIDQADIYLMQNWEHVLHLMNHMNLLPLDSHGVDFSRVRMWSLNNWSKYYRQTLLFGALQDAQINSVFNKYCVNMQGQVAVRNVPMTGSISHVLVQLPHVFQRMEAENLASVIDARFNFFVNKILPQYRDAVMSHTLIYIPSYFDFVRLRNYFKKEELNFTHICEYTQKSGVSRARHFFLQGEKQFLLFTERFHFYKRYTIKGIRNLIFYELPTYPHFYSEICNMLRATNRGEEATWTCTVLYSKYDAQRLAAVVGVERAAQMLQSNKNVHLFITGEK
# partner: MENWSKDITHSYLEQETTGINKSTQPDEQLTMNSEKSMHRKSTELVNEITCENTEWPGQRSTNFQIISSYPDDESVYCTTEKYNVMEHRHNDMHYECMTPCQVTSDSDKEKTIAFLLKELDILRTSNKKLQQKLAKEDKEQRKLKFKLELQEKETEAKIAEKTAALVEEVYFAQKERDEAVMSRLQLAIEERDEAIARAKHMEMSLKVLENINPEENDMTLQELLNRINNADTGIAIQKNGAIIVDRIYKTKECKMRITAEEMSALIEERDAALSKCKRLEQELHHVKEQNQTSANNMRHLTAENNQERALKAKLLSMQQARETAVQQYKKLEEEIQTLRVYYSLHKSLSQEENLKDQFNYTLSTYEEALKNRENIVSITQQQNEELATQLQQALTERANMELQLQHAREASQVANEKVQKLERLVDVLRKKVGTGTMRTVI
# B5: Abl interactor 2 (Homo sapiens), Q9NYB9 (parent)
# chain: B1 chain
# partner: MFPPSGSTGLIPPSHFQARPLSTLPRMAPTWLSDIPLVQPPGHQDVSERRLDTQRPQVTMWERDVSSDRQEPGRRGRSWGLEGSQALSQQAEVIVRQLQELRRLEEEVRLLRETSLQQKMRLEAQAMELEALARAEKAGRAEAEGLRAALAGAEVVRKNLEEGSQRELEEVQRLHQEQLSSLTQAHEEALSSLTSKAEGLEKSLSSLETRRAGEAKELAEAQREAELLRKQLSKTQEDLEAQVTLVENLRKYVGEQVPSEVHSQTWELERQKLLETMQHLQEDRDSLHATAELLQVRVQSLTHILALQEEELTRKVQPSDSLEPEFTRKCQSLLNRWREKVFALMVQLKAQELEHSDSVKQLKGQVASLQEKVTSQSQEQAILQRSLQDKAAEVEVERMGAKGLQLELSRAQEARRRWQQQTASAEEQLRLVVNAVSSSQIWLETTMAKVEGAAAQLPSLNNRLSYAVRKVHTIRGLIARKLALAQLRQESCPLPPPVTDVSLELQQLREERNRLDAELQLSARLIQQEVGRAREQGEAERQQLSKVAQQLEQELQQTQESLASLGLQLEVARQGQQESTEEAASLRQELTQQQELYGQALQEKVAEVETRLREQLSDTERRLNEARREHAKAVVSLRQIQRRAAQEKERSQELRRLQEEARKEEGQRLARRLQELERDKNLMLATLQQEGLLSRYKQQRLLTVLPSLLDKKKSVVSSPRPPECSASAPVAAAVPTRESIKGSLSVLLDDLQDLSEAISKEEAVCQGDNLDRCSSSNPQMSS
# Variants of: B1
# Details: with gcc1_human GCC1, Q96CN9
row,effect of a mutation on the interaction,Variant
1,with no effect,E202K

# Variants of: B2
# Details: with kra59_human KRTAP5-9, P26371
row,effect of a mutation on the interaction,Variant
1,disrupting interaction strength,MSCQQNQQQCQPPPKYIPKCPPKCLTPRCPPKCPPKCPPVSSCCSVSSGGCCGSSSGGSCGSSSGGCCSSGGGGCCLSHHRRRRSHCHRPQSSGCCSQPSGGSSCCGGGSGQHSGGCC

# Variants of: B3
# Details: with tfp11_human TFIP11, Q9UBB9
row,effect of a mutation on the interaction,Variant
1,with no effect,R373C

# Variants of: B3
# Details: with tfp11_human TFIP11, Q9UBB9
# Remark: another data set of the same source
row,effect of a mutation on the interaction,Variant
1,with no effect,E202K

# Variants of: B4
# Details: with mipo1_human MIPOL1, Q8TD10
row,Variant,effect of a mutation on the interaction
1,D399E,with no effect

# Variants of: B5
# Details: with cchcr_human CCHCR1, Q8TD31
row,Variant,effect of a mutation on the interaction
1,E202K,with no effect
